# From patent publication US12509503B2, “Pan-neuraminidase inhibiting antibodies” (Washington University, priority 2019, dated 2025)
# B1: 1G04: human anti-NA monoclonal antibody expressed as IgG1; heavy chain variable region SEQ ID NO: 40, light chain variable region SEQ ID NO: 41 (antibody, listed as Homo sapiens, V domains shown)
# VH: EVQLVESGGRVVRPGGSLRLSCAASGFTFDDYGMSWVRQAPGKGLEFVSGLNWNGDITAFTDSVKGRFTISRDNAKSSLYLQMNSLRADDTAFYYCARVRTWGEYTTREEPIHSWYFDLWGRGTLVTVSS
# VL: DIQLTQSPSFLSASVGDRVTITCRASQDISSFLAWYQQKPGNAPKVLIYAASLLQSGVPSRFSGSGSGTDFTLTISSLQPEDFATYYCQQLNSYPLFTFGPGTKVDIK
# modifications: IgG1 constant regions
# B2: 1E01: human anti-NA monoclonal antibody expressed as IgG1; heavy chain variable region SEQ ID NO: 42, light chain variable region SEQ ID NO: 43 (antibody, listed as Homo sapiens, V domains shown)
# VH: EVQLVESGGRVVRPGGSLRLSCAASGFTFDDYGMSWVRQPPGKGLEFVSGLNWNGDITAFTDSVKGRFTISRDNVKSSLYLQMNSLRADDTAFYYCARVRTWGDYTTGEEIINSWYFDLWGRGTLVTVSS
# VL: DIQLTQSPSFLSASVGDRVTITCRASQDISSYLAWYQQKPGNAPKLLIYAASLLQSGVPSRFSAFGSGTEFTLTISSLQPEDFATYYCQHLKSYPLFTFGPGTKVDIK
# modifications: IgG1 constant regions
# B3: 1G01: human anti-NA monoclonal antibody expressed as IgG1; heavy chain variable region SEQ ID NO: 44, light chain variable region SEQ ID NO: 45 (antibody, listed as Homo sapiens, V domains shown)
# VH: EVQLVESGGRALRPGGSLRLSCAASGFKFDDYAMSWVRQVPGKGLEFVSGLNWNGDITAYTDSVKGRFTVSRDNAKNSLYLHINSPKPEDTALYYCARTSSWGDYTRGPEPKITWYFDLWGRGTLVTVSS
# VL: DIQLTQSPSFLSASVGDRITITCRASQGIDGYLAWYQQRPGKAPNLLIYAASLLQSGVPSRFSGSGYGTEFTLTISSLQPEDFATYYCQHLDSYPLFTFGPGTKVDIK
# modifications: IgG1 constant regions
# B4: 1G01 Fab: antigen-binding fragment (Fab) of 1G01 used instead of the full antibody (antibody)
# heavy: EVQLVESGGRALRPGGSLRLSCAASGFKFDDYAMSWVRQVPGKGLEFVSGLNWNGDITAYTDSVKGRFTVSRDNAKNSLYLHINSPKPEDTALYYCARTSSWGDYTRGPEPKITWYFDLWGRGTLVTVSS
# light: DIQLTQSPSFLSASVGDRITITCRASQGIDGYLAWYQQRPGKAPNLLIYAASLLQSGVPSRFSGSGYGTEFTLTISSLQPEDFATYYCQHLDSYPLFTFGPGTKVDIK
# modifications: left off: a dimerising Fc or GST
# What was measured:
# [1] = test system: recombinant NA, group 1 NAs (N1, N4, N5 and N8) and group 2 NAs (N2, N3, N6, N7 and N9); type: binding, influenza A virus
# [2] = test system: influenza A group 1 and group 2 NAs; assay: Enzyme-linked lectin assay (ELLA) neuraminidase inhibition, influenza A NAs; type: biochemical, influenza A virus; settings: for neuraminidase inhibition (NI) in ELLA: fetuin substrate, subtypes inhibited are named in the value
# Method: Ninety six-well microtiter plates (Thermo Fisher) were coated with 100 μL/well fetuin (Sigma) at a concentration of 25 μg/mL in 1× coating buffer (KPL coating solution; SeraCare) at 4° C. overnight. The next day, the plates were washed three times with T-PBS and blocked in 200 μL blocking buffer (5% bovine serum albumin (BSA, Biomedicals) in PBS) at room temperature. On a separate 96-well plate virus was serially diluted 1:2 in PBS. Seventy-five μL of PBS was added to all wells and the plates incubated for 1.5 h on a shaker at room temperature. After blocking, the plates were washed three times with T-PBS, 100 μL of serially diluted virus was transferred well by well to the fetuin coated plates and the plates were incubated for 2 hours at 33° C. or 37° C. depending on the virus type. The plates were washed four times and 100 μL peanut agglutinin (PNA) conjugated to HRP at a concentration of 5 μg/mL was added to all wells. The plates were incubated in the dark for two hours, the plates washed four times and developed with 100 μL SigmaFast OPD. The reaction was stopped after 5 min with 50 μL 3M hydrochloric acid (Thermo Fisher) and the plates were read at a wavelength of 490 nm with a microtiter plate reader (Bio-Tek). The data were analyzed in Microsoft Excel and GraphPad Prism 7, and the 50% effective concentration (EC50) was calculated for each virus.
# To perform neuraminidase inhibition assays, the microtiter plates were coated and blocked as described above. During the blocking of the fetuin coated plates the mAbs were diluted to a starting concentration of 30 μg/mL and serially diluted 1:2 in PBS in a separate 96-well plate. Seventy-five μL of virus diluted to 2× effective concentration 50 (EC50) was added to wells of the serially diluted mAbs and incubated for 1.5 h on a shaker. The fetuin coated plates were washed three times with T-PBS and the virus/mAb mixture was added to the plates and incubated for 2 hours at 33° C. or 37° C. The remainder of the assay was performed as described above. The data were analyzed in Microsoft Excel and GraphPad Prism 7, and the inhibitory concentration 50 (IC50) was calculated.
# recombinant N2 NA = type: binding, influenza A virus
# [3] = test system: challenge viruses expressing N1, N2, N3, N5, N6, N7, N8, N9 NAs and influenza B virus NA; parameters: species or system mice; settings: mouse, in vivo
# [4] = test system: virus expressing a group 1 neuraminidase (N4); parameters: species or system mice; settings: mouse, in vivo
Molecule,binding / cross-reactivity to recombinant influenza A NA subtypes in ELISA [1],neuraminidase inhibition (NI) in ELLA [2],binding to N2 NA (recombinant N2 NA),protection against weight loss [3],protection from lethality [3],weight loss [4],NA inhibition in ELLA ([2]; H3N2 strain A/Hong Kong/4801/2014)
B1,"some cross-reactivity to N3 and N6 (group 2), and N1, N5 and N8 (group 1)","inhibited N2, N3 and certain N1 NAs",bound,–,–,–,–
B2,"even broader binding pattern that included group 2 NAs N3, N6, N7 and N9, group 1 NAs N1, N5 and N8","inhibited group 2 NAs, N1",bound,–,–,–,–
B3,"broadest binding activity that covered all group 1 NAs (N1, N4, N5 and N8) and group 2 NAs (N2, N3, N6, N7 and N9)",inhibited the activity of all A/group 2 and group 1 NAs,bound,solid protection against weight loss,full protection from lethality,some transient weight loss,–
B4,–,–,–,–,–,–,potent inhibition
